The values below come from PMC8216552.

“And” between values parts separate entries of the source, which are not always exact repeats. Equal entries are not always repeated.

Test [1] has as its target stabilized soluble CON-S envelope trimer (stabilized CON-S SOSIP gp140) (HIV-1 (group M consensus)). The test can be described thus: negative stain electron microscopy; chimeric CON-S DS.SOSIP-664 trimers with a 10-fold molar excess of Fab, 1 h at room temperature; uranyl formate stain; 2D classes and 3D reconstruction (RELION).
Substrate in test [2]: CON-S gp120 with the N362 glycosylation site (HIV-1 (group M consensus))
For test [3], the target named is stabilized soluble CON-S envelope trimer (stabilized CON-S SOSIP gp140) (HIV-1 (group M consensus)).
Substrate in test [4]: CON-S gp120 (HIV-1 (group M consensus))
The test can be described thus: ELISA; direct ELISA: HIV-1 envelope protein (2 ug/mL) in sodium bicarbonate buffer coated on 384-well plates overnight at 4 C; serially diluted antibodies 90 min; detected with HRP anti-IgG Fc; titres as area under the log-transformed curve (log AUC). For orientation: In an ELISA, binding on a coated surface is turned into a signal by an enzyme label.

B1: DH846.1 Fab (Fab, V domains shown)
VH: QLQLQESGPGLVKPSETLSLTCDVSGVSISSNYGWGWIRQPPGKGLDWIVTIYGGTGNTYYAPSLEGRVAISKDASKNQFSLRLNSVTAADTAVYYCARKITYSSGWYYFDYWGQGVLVAVSS
VL: EIVMTQSPATLSLSPGERATLSCRASQSVSSRLAWYQQKPGQAPRLLIYDASNRATGIPDRFSGSGSGTEFTLTISGLEPEDVAVYFCQEDHNWSTFGQGTKVEIK
Regarding B1, in test [1], the stoichiometry N (Fabs per trimer) was 2 and 3.

B2: DH845.1 Fab (Fab, V domains shown)
VH: QVQLQESGPGLVKPSETLSLTCAVSGGSMSSVYQGWGWIRQPPGKGLEWIATTYTSTGNIYYNPSLKGRGTVSRDTSKNQFSLKLSAVTAADTAVYYCARLNLGDSGDYTGVSEYFDFWGQGALVTVSS
VL: AIQLTQSPSALSASVGDRVTISCRASQNIYSNLAWYQQKPGKAPKLLIFGASRLQSGIPSRFSGSGSGTDFTLTISSLQPEDSATYYCQQVYSNFYSFGQGTKVEIK
With B2, the stoichiometry N (Fabs per trimer) in test [1] is 2 and 3.

B3: DH842 Fab (Fab, V domains shown)
VH: QVQLQESGPGLMQPAETLSLTCAVSRDSIGSGYYAWGWFRQVPGKGLEWIVTIYTSTGNIYDESPLKSRVTISRDTSKNQFSLKLTSVTPADTAVYFCAREGCNTVFCSAGWFDVWGPGLLVTVSS
VL: QAVLTQPTALSASPGASARLTCTLRSGISVADYRIFWYQQRPGSPPRYLLNYRTDSDHHQGSGVPSRFSGSKDDSANTGFLVISGLQSEDEADYHCMIRHNTAYIFGGGTRLTLL
Consider B3, for which, in test [1], the percent of analyzed Envs with one Fab bound amounted to 34% and the percent of analyzed Envs with two Fabs bound turned out to be 53%.

B4: DH840.1 IgG (antibody, V domains shown)
VH: QVQLKESGPGLVRPSETLSLTCAVSGTSINSAYAWGWVRLPPGKGLEWIMTVYTSTGNTYSDPSLKSRVTISKDTSKNQFSLRLSSVTVEDTAVYFCARADGSDSGWPHFDNWGQGLLVTVSS
VL: EIMVTQSPATLSVSPGERATLSCRASQSVRNRIAWYQQKPGQSPRLLIYDASIRAPGIPDRLSGSGSGTEFTLTINSLEPSDVAVYFCQLEANWLTFGGGTKVEIK
As for B4, in test [2], the maximum percent neutralization of CON-S pseudovirus with the N362 glycan (TZM-bl cells) is 45%. In test [3], this molecule gave a maximum percent neutralization of wild-type CON-S pseudovirus (TZM-bl cells) of 83%.

B5: DH840.1 W100bA (antibody, V domains shown)
VH: QVQLKESGPGLVRPSETLSLTCAVSGTSINSAYAWGWVRLPPGKGLEWIMTVYTSTGNTYSDPSLKSRVTISKDTSKNQFSLRLSSVTVEDTAVYFCARADGSDSGAPHFDNWGQGLLVTVSS
VL: EIMVTQSPATLSVSPGERATLSCRASQSVRNRIAWYQQKPGQSPRLLIYDASIRAPGIPDRLSGSGSGTEFTLTINSLEPSDVAVYFCQLEANWLTFGGGTKVEIK
Regarding B5, the percent reduction of binding against wild-type DH840.1 in test [4] was 64%.

B6: DH840.1 Fab (Fab, V domains shown)
VH: QVQLKESGPGLVRPSETLSLTCAVSGTSINSAYAWGWVRLPPGKGLEWIMTVYTSTGNTYSDPSLKSRVTISKDTSKNQFSLRLSSVTVEDTAVYFCARADGSDSGWPHFDNWGQGLLVTVSS
VL: EIMVTQSPATLSVSPGERATLSCRASQSVRNRIAWYQQKPGQSPRLLIYDASIRAPGIPDRLSGSGSGTEFTLTINSLEPSDVAVYFCQLEANWLTFGGGTKVEIK
As to B6, in test [1], the percent of trimers bound by Fab came to 33% and the stoichiometry N (Fab per trimer) is 1.
